Assay results published in article PMC9860306 (2022).

Key:
Test in all cases: SPR
C11 = target: C11
E4 = target: E4
E2 = target: E2

Kd (C11): 22.8 µM
Kd (E4): 2.48 µM
Kd (E2): 4.74 µM
B1: rituximab, galactosylated afucosylated (G2) glycoform (antibody)
chain 1: QVQLQQPGAELVKPGASVKMSCKASGYTFTSYNMHWVKQTPGRGLEWIGAIYPGNGDTSYNQKFKGKATLTADKSSSTAYMQLSSLTSEDSAVYYCARSTYYGGDWYFNVWGAGTTVTVSA
chain 2: QIVLSQSPAILSASPGEKVTMTCRASSSVSYIHWFQQKPGSSPKPWIYATSNLASGVPVRFSGSGSGTSYSLTISRVEAEDAATYYCQQWTSNPPTFGGGTKLEIK
modifications: N-linked glycan on Asn297: G2 (galactosylated, no core fucose)
